Results: patent US20220049236A1 (YEDA RESEARCH AND DEVELOPMENT, published 2022)

Legend:
[1] = biological target: T1, LOX catalytic domain (catalytic domain of human LOX, 169-417) (human, UniProt P28300 170-417); test: ELISA, plate coated with LOX catalytic domain
T1 construct: Expressed from pET28 in E. coli BL21 SHuffle, purified on HisTrap and labelled through its His tag for MST
T1 sequence: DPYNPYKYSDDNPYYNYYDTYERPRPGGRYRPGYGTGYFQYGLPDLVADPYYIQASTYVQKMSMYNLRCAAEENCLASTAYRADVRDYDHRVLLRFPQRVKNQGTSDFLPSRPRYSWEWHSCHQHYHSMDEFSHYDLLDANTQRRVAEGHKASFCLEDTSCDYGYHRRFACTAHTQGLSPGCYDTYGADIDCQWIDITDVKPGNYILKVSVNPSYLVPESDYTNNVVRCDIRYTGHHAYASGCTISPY
Method: A ninety-six-well plate (Nunc) was coated with LOX-catalytic domain, HSP70 or BSA at 10 μg/mL. After blocking with 2% BSA in PBS, the plate was incubated with Fc and Fc-LPD for 1 hour at 37° C. Bound antibodies were detected by peroxidase-conjugated antibody goat anti-human (Jackson ImmunoResearch). EC₅₀ was calculated with GraphPad Prism from […] curve fitting analysis.
The pYD5-Fc-LPD plasmid was used as a template in order to create point mutations in the three N-glycosylated sites N81, 97, 144 in the LPD, which are the N346, 362, 409 in our Fc-LPD construct with Q SEQ ID NO: 11. The mutations were performed with site-directed mutagenesis according to kit manufacturer instructions. EC₅₀ of generated Fc-LPD N346, 362, 409Q inhibitor was measured by ELISA (FIG. 1C) ranged from 10 to 2000 nM against the LOX catalytic domain (EC₅₀=58 nmol/L).

Filaggrin-2 = biological target: T2, Filaggrin-2 (human, UniProt Q5D862 1-2391, limits assumed); test: IP from HDF supernatant, LFQ mass spectrometry; ratio against Fc control
T2 construct: also called FLG2
T2 sequence (Q5D862 whole entry): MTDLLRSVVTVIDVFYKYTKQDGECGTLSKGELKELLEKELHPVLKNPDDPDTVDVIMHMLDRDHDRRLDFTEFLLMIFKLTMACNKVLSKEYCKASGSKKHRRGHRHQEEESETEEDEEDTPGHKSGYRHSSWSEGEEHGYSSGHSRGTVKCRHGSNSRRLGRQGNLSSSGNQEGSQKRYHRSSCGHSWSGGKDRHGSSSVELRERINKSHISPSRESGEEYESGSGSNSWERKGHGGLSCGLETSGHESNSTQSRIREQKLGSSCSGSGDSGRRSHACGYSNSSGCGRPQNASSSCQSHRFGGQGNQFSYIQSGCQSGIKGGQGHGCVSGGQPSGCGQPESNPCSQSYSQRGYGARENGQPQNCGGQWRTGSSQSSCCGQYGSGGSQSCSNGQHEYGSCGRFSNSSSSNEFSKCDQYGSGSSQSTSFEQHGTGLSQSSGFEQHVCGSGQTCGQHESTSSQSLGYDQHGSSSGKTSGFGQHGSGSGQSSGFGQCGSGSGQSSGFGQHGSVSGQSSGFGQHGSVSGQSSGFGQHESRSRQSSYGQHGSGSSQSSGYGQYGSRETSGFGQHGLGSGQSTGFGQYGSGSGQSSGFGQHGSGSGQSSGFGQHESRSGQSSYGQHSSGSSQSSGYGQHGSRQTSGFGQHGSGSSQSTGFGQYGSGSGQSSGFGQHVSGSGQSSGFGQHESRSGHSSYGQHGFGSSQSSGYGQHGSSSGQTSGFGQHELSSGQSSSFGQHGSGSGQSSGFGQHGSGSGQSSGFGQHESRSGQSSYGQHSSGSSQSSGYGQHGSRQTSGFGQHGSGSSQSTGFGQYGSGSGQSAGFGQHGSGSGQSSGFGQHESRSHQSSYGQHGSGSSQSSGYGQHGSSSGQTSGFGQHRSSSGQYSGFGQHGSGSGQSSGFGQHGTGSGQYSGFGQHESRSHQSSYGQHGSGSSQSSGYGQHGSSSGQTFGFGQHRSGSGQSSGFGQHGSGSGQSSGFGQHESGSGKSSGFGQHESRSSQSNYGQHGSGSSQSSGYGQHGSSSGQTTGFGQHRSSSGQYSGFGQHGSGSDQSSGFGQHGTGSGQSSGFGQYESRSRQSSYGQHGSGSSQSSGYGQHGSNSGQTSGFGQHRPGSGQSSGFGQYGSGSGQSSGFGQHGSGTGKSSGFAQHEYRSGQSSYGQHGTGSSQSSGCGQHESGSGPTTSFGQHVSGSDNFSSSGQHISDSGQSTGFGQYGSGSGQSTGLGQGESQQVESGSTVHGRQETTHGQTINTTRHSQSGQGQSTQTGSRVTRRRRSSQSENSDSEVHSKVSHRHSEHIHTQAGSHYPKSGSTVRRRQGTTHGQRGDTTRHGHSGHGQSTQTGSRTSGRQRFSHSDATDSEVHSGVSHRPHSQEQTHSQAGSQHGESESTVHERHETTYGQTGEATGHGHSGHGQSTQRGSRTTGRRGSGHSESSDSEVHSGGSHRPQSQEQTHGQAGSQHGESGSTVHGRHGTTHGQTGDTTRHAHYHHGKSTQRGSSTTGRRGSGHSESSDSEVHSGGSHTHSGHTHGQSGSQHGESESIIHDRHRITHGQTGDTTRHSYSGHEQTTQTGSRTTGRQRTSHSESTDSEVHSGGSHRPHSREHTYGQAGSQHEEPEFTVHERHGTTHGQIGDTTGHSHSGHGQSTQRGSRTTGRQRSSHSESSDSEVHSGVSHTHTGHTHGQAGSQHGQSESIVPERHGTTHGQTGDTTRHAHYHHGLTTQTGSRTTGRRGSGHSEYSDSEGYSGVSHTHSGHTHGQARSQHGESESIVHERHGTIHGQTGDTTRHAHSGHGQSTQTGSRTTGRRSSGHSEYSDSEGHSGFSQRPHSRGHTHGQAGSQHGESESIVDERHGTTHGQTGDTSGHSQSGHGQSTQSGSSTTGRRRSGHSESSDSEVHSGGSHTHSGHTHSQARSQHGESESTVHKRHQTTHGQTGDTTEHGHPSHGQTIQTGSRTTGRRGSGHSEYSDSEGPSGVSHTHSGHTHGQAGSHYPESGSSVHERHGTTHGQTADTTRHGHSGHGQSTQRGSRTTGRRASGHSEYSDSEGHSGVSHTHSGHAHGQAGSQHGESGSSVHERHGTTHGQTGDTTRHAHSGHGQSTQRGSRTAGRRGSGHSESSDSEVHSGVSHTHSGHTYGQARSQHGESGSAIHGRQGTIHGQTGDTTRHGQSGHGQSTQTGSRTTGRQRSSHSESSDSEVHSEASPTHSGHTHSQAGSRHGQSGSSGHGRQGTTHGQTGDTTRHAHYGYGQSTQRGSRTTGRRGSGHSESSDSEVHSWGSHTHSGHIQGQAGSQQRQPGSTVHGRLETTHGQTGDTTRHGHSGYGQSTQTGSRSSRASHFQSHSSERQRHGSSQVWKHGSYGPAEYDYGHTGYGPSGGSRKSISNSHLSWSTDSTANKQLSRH

Hornerin = biological target: T3, Hornerin (human, UniProt Q86YZ3 1-2850, limits assumed); test: as above
T3 construct: also called HRNR

[2] = biological target: T4, Heat shock 70 kDa protein 1A/B (human, UniProt P0DMV9 2-641); test: as above
T4 construct: also called Heat shock 70 kDa protein 1B; HSPA1B
T4 sequence (P0DMV9 2-641 limits assumed): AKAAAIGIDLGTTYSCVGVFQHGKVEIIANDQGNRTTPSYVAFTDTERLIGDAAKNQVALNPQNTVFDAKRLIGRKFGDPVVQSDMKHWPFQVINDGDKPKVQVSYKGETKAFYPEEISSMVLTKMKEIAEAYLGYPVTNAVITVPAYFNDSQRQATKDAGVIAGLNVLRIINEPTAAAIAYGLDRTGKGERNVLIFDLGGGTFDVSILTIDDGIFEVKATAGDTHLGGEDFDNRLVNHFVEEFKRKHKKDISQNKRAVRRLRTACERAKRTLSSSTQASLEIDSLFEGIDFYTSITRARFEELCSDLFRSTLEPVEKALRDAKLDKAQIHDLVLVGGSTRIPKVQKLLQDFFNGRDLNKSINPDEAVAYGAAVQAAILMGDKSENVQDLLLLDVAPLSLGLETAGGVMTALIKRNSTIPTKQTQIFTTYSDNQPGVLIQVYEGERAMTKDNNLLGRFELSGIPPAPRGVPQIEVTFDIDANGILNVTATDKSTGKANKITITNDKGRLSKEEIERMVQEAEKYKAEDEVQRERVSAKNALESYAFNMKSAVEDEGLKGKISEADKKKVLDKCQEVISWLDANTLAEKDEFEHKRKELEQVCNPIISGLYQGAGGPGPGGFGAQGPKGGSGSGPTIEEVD

[3] = biological target: T5, Heat shock protein HSP 90-alpha (human, UniProt P07900 2-732); test: as above
T5 construct: also called HSP90AA1

[4] = biological target: T6, Heat shock cognate 71 kDa protein (human, UniProt P11142 2-646); test: as above
T6 construct: also called HSPA8
T6 sequence (P11142 2-646 limits assumed): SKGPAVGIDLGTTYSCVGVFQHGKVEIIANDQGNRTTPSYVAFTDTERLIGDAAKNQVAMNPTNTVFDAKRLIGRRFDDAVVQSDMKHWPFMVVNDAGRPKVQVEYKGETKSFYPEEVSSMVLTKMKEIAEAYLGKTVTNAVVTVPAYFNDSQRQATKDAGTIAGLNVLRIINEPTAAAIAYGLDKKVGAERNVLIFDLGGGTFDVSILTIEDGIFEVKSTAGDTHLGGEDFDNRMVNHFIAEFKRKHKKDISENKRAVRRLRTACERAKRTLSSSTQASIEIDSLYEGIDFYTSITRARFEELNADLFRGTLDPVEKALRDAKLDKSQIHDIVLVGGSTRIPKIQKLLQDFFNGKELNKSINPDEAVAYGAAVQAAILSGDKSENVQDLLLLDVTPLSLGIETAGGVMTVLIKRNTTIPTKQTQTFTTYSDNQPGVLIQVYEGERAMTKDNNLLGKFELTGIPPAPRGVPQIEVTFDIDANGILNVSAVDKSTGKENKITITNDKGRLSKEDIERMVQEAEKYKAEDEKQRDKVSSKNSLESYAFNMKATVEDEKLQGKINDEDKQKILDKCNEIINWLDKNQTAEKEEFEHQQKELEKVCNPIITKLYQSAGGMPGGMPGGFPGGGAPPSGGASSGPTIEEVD

[5] = biological target: T7, Heat shock protein HSP 90-beta (human, UniProt P08238 2-724); test: as above
T7 construct: also called HSP90AB1
T7 sequence (P08238 2-724 limits assumed): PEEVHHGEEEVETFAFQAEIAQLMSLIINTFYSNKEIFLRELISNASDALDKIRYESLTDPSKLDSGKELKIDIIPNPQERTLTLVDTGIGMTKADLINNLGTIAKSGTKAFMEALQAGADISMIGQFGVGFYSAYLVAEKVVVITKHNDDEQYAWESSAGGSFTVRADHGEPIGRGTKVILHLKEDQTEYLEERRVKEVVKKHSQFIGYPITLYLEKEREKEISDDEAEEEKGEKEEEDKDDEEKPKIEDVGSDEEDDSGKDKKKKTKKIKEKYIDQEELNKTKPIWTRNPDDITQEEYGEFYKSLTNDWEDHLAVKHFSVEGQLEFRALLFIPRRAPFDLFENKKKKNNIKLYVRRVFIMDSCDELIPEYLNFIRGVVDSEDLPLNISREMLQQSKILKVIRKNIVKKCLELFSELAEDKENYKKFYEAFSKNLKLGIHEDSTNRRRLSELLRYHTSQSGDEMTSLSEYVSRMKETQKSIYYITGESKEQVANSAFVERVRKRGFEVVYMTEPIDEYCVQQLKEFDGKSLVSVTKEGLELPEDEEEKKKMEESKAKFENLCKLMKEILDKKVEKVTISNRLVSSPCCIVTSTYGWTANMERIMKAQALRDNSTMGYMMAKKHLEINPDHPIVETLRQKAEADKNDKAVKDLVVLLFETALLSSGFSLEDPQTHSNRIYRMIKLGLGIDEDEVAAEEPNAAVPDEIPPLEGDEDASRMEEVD

[6] = biological target: T8, 60 kDa heat shock protein, mitochondrial (human, UniProt P10809 27-573, limits assumed); test: as above
T8 construct: also called HSPD1; HSP60
T8 sequence (P10809 27-573 limits assumed): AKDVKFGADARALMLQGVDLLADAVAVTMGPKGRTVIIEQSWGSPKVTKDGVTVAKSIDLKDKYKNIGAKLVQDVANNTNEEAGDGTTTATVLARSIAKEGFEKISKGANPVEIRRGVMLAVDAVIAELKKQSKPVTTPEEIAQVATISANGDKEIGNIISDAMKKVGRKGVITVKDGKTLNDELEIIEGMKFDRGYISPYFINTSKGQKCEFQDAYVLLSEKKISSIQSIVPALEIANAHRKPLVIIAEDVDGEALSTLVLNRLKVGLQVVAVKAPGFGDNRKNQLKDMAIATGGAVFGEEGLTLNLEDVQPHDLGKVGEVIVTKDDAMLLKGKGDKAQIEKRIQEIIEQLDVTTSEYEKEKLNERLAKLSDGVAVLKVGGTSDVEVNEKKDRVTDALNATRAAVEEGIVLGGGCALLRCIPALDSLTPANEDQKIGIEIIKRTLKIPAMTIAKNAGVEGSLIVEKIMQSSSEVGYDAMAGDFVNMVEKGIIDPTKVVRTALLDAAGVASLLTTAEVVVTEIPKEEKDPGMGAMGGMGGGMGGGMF

B1: Fc-LPD N346, 362, 409Q (Fc fusion)
chain: APPAAGQQQPPREPPAAPGAWRQQIQWENNGQVFSLLSLGSQYQPQRRRDPGAAVPGAAQASAQQPRTPILLIRDQRTAAARTRTAGSSGVTAGRPRPTARHWFQAGYSTSRAREAGASRAEQQTAPGEVPALSNLRPPSRVDGMVGD
notes: Fc-LPD with the three N-glycosylation sites N81, 97, 144 of the LPD (N346, 362, 409 in the construct) changed to Q by site-directed mutagenesis of pYD5-Fc-LPD; also called non-glycosylated form
- EC50 [1]: 58 nM
- Ratio Fc-LPD-N346, 409, 456Q:Fc (Filaggrin-2): 0
- Ratio Fc-LPD-N346, 409, 456Q:Fc (Hornerin): 0.2
- Ratio Fc-LPD-N346, 409, 456Q:Fc [2]: 30
- Ratio Fc-LPD-N346, 409, 456Q:Fc [3]: 0.2
- Ratio Fc-LPD-N346, 409, 456Q:Fc [4]: 0.9
- Ratio Fc-LPD-N346, 409, 456Q:Fc [5]: 1.8
- Ratio Fc-LPD-N346, 409, 456Q:Fc [6]: 0.1
